Source: the nanobody polyreactivity screen of Harvey et al. (2022)

Assay: yeast display, Sf9 membrane polyspecificity reagent, FACS + sequencing; frameworks hold sequencing errors
Outline: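 In a synthetic yeast display library (Saccharomyces cerevisiae BJ5465), nanobody expression was induced with galactose for 36–48 hours. FACS gates were set low and high (top ~1%) using anti-HA fluorescence for expression and streptavidin fluorescence for binding of the Sf9 membrane reagent. Each polyreactivity label is drawn from the gate of origin.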

Sequence | polyreactivity (PSR sort gate)
QVQLVESGGGLVQAGGSLRLSCAASGRTFRWTAMGWYRQAPGKERELVAAISYSGGSTYYADSVKGRFTISRDNAKNTVYLQMNSLKPEDTAVYYCAKAYSWYPIIRGLDSWGQGTQVTVSS | high polyreactivity
QVQLVESGGGLVQAGGSLRLSCAASGRTFRWYAMGWYRQAPGKERELVAAISGSGDRTYYADSVKGRFTISRDNAKNTVYLQMNSLKPEDTAVYYCNKAYLLYYTYARGDYWGQGTQVTVSS | high polyreactivity
QVQLVESGGGLVQAGGSLRLSCAASGRTFRYNAMGWYREAPGKERELVAAISTRGGSTYYADSVKGRFTISRDNAKNTVYLQMNSLKPEDTAVYYCAVTRRFPGHFEDYYWGQGTQVTVSS | low polyreactivity
QVQLVESGGGLVQAGGSLRLSCAASGRTFRYNAMGWYRQAPGKERELVAAITGGGSTYYADSVKGRFTISRDTAKNTVYLQMNSLKPEDTAVYYCAAANWRRIDYRYRFDYWGQGTQVTVSS | high polyreactivity
QVQLVESGGGLVQAGGSLRLSCAASGRTFRYYAMGWYIQAPGKERELVAAISWRGGSTYYAYSVKGRFTLSRDYAKNTVYLQINSLKPEDTAVYYCAAGILFGHYDYWGQATQVTVSS | high polyreactivity
QVQLVESGGGLVQAGGSLRLSCAASGRTFRYYAMGWYRPAPGKERELVAAITSGGSTYYADSVKGRFTISRDNAKNTVYLQMNSLKPEDTAVYYCNKDFTRTWTRHGDDYWGQGTQVTVSS | high polyreactivity
QVQLVESGGGLVQAGGSLRLSCAASGRTFRYYAMGWYRPAPGKERELVAAITSGGTSTYYADSVKGRFTISRDNAKNTVYLQMYSLKPEDTAVYYCAAGRRSYSFHNVVRGYDYWGQGTQVTVSS | high polyreactivity
QVQLVESGGGLVQAGGSLRLSCAASGRTFRYYAMGWYRQAPGKERELVAAIRANGGSTYYADSVKGRFTISRDNAKNIVYLQMNSLKPEDTAVYYCAALYRRYPYHYDSWGQGTQVTVSS | high polyreactivity
QVQLVESGGGLVQAGGSLRLSCAASGRTFRYYAMGWYRQAPGKERELVAAIRRGGSTTYADSVKVRFTISRDNAKNTVYLQMNSLKPEDTAVYYCAARYPGTRGDGYWGQGTQVTVSS | high polyreactivity
QVQLVESGGGLVQAGGSLRLSCAASGRTFRYYAMGWYRQAPGKERELVAAISRSGGSTYYAVSVKGRFTISRDNAKNTVYLQMNSLTPEVTAVYYCAARYYVPWFGPSKYTPYDYWGQGIQVTVSS | high polyreactivity
QVQLVESGGGLVQAGGSLRLSCAASGRTFRYYAMGWYRQAPGKERELVAAITRGGRTNYADSVKGRFTISRDNAKNTVYLQMNSLKPEDTAVYYCAAVLYTPNKYASYYWGQGTQVTVSS | high polyreactivity
QVQLVESGGGLVQAGGSLRLSCAASGRTFRYYDMGWYRQAPGKEREFVAAITWRGGSTYYADSVKGRFTISRDNAKNTVYLQMNSLKPEDTAVYYCATDSLRLYGGKRDLYYWGQGTQVTVSS | low polyreactivity
QVQLVESGGGLVQAGGSLRLSCAASGRTFRYYSMGWYRQAPGKERELVAAISSRGNTYYADSVKGRFTISRDNAKNTVYLQMNSLKPEDTAVYYCAARNVVTGYRYDYWGHGTQVTVSS | high polyreactivity
QVQLVESGGGLVQAGGSLRLSCAASGRTFRYYTMGSYRPAPGKEREFVAAISSTGGTYYADSVKGRFTISRDNAKNTVYLQMNSLKPEDTAVYYCAKVYFWGALSPDKYDEDYWGQGTQVTVSS | low polyreactivity
QVQLVESGGGLVQAGGSLRLSCAASGRTFRYYTMGWYRQAPGKEREFVAAISSTGGTYYADSVKGRFTISRDNAKNTVYLQMNSLKPEDTAVYYCAAETEDWNEYNYWGQGTQVTVSS | low polyreactivity
QVQLVESGGGLVQAGGSLRLSCAASGRTFRYYTMGWYRQAPGKEREFVAAISSTGGTYYADSVKGRFTISRDNAKNTVYLQMNSLKPEDTAVYYCNATTSSNEYDSWGQGTQVTVSS | low polyreactivity
QVQLVESGGGLVQAGGSLRLSCAASGRTFRYYTMGWYRQAPGKEREFVAALSSTGGTYYADSVKGRFTISRDNAKNTVYLQMNSLKPEDTADYYCNVSSLNSYTSGTTYWGVDYWGQGTQVTVSS | low polyreactivity
QVQLVESGGGLVQAGGSLRLSCAASGRTFRYYTMGWYRQAPGKERELVAAITRNGGRTYYADSVKGRFTISRDNAKNTVYLQMNSLKPEDTAVYYCAAGTYDGGYHYDYWGQGTQVTVSS | high polyreactivity
QVQLVESGGGLVQAGGSLRLSCAASGRTFRYYTMGWYRQAPGKERELVAVISRSGGNTYYADSVKGRFTISRDNAKNTVYLQMNSLKPEDTAVYYCAAKIALDNDYWGQGTQVTVSS | high polyreactivity
QVQLVESGGGLVQAGGSLRLSCAASGRTFSANAMGWYRQAPGKERELVAAISSGGSTTYADSVKGRFTISRDNAKNTVYLQMNSLKPEDTAVYYCAAVWLSLFKGWVDTHEYDYWGQGTQVTVSS | low polyreactivity

Sequence | polyreactivity (PSR sort gate)
QVQLVESGGGLVQAGGSLRLSCAASGRTFSANAMGWYRQAPGTEREGVATMTVRGGSTNYADSVKGRFTISRDNAKNTVYLQMNSLKPEDTAVYYCNAYVNSNVRWAYWGFDYCGQGTQVTVSS | high polyreactivity
QVQLVESGGGLVQAGGSLRLSCAASGRTFSANTMGRYRQAPGKERELVAAITRGASTKYADSVKGRFTISRDNAKNTVYLPMNSLNPDDTAVYYCAAAVAYEYLQYAYTRYYYWGQGTQVTVSS | high polyreactivity
QVQLVESGGGLVQAGGSLRLSCAASGRTFSAYAMGWYRQAPGKERELVAAISTNVGSTYYADSVKGRFTISRDTAKNTVYLQMNSLKPEDTAVYYCAKSWTLSGWNYYYWGQGTQVTVSS | high polyreactivity
QVQLVESGGGLVQAGGSLRLSCAASGRTFSAYVMGWYRQAPGKEREFVATIRRTGSTYYADSVKGRFTISRDNAKNTVYLQMNSLKPEDTAVYYCNRGSFPSVQGSYPGYGYWGQGTQVTVSS | high polyreactivity
QVQLVESGGGLVQAGGSLRLSCAASGRTFSFYAMGWYRQAPGKERELVAAIRSDGGTTYYADSVKGRFTISRDNAKNTVYLQMNSLKPEDTAVYYCNTQSFYFVSYSSSRYLRYYWGQGTQVTVSS | low polyreactivity
QVQLVESGGGLVQAGGSLRLSCAASGRTFSFYAMGWYRQAPGKERELVAAISRGGTTNYADSVKGRFTISRDNAKNTVYLQMNSLKPEDTAVYYCAASYFRRGFYSIYEYDYWGQGTQVTVSS | low polyreactivity
QVQLVESGGGLVQAGGSLRLSCAASGRTFSGYAKGGYRQAPGKERELVAAITSSGSSTYYADSVKGRFTISRDNAKNTVYLQMNSLKPEDTAVYYCAATPQAHSERYYYQRKYDYWGQGTQVTVSS | low polyreactivity
QVQLVESGGGLVQAGGSLRLSCAASGRTFSGYAMGGDIQAPGKERELVAAITARSGSTYYADSVKGRFTISRDNAKNTVYLLMNSLKPEDTAVYYCNAPRYAARFDYWGQGTQVTVSS | high polyreactivity
QVQLVESGGGLVQAGGSLRLSCAASGRTFSGYAMGWYRPAPGKERELVATISSGGRTNYADSVKGRFTISRDNAKNTVYLQMISLKPEDTAVYYCNVRWWGRGPWSDYWGQGTQVTVSS | high polyreactivity
QVQLVESGGGLVQAGGSLRLSCAASGRTFSGYAMGWYRQAPGKERELVAAIRGGSTNYADSVKGRFTISRDNAKNTVYLQMNSLKPEDTAVYYCNAKRSWVWAGYDYWGQGTQVTVSS | high polyreactivity
QVQLVESGGGLVQAGGSLRLSCAASGRTFSGYAMGWYRQAPGKERELVAAISNSGGNTYYADSVKGRFTISRDNAKNTVYLQMNSLKAEDTAVYYSAVDSSSPYDYWGQGTQVTVSS | high polyreactivity
QVQLVESGGGLVQAGGSLRLSCAASGRTFSGYAMGWYRQAPGKERELVAAISSGGGSTYYADSVKGRFTISRDNAKNTVYLQMNSLKPEDTAVYYCAADGYPGDYDYWRQGTQVTVSS | low polyreactivity
QVQLVESGGGLVQAGGSLRLSCAASGRTFSGYAMGWYRQATGKERELVAAITRRGGTTYYADSVKGRFTISRDNAKNTVYLQMNSLKPEDTAVYYCAAAKPRVISQNIIYDYWGQGTQVTVSS | high polyreactivity
QVQLVESGGGLVQAGGSLRLSCAASGRTFSGYVMGWYRQAPGKERELVATINGSGASTYYADSVKGRFTISRDNAKNTVYLQMNSLKPEDTAVYYCNKYPAHYQTRRYDYWGQGTQVTVSS | high polyreactivity
QVQLVESGGGLVQAGGSLRLSCAASGRTFSIYAMGWYRQAPGKERELVAAISNGGRTKYADSVKGRFTISRDNAKNTVYLQMNSLKPEDTAVYYCNALAYNVPRYDYWGQGTQVTVSS | high polyreactivity
QVQLVESGGGLVQAGGSLRLSCAASGRTFSIYAMGWYRQAPVKERELVAAISNGGRTKYADSVKGRFTISRDNAKNTVSLQMNSLKPEDTAVYYCAKRTYSRKFRGAYNYWGQGTQVTVSS | high polyreactivity
QVQLVESGGGLVQAGGSLRLSCAASGRTFSKYAMGWYRQAPGKERELVASISSDGRTYYADSVKGRFTISRDNAKNTVYLQMNRLKPEDTAVYYCAAKEWYFPTWYTYYERDYWGQGTQVTVSS | high polyreactivity
QVQLVESGGGLVQAGGSLRLSCAASGRTFSKYTMGWYRQATGKERELVAVISRSGTRTYYADSVKGRFTISRDNAKNTVYLQMNSLKREDTAVYYCAAKDERRSFGMGYWGQGTQVTVSS | high polyreactivity
QVQLVESGGGLVQAGGSLRLSCAASGRTFSLYAMGWYRQAPGKERELVAGIDWSGGSTYYADSVKGRFTISRDNAKNTVYLQMNSLKPEDTAVYYCAAKYVWVSKASKDYDYWGQGTQVTVSS | low polyreactivity
QVQLVESGGGLVQAGGSLRLSCAASGRTFSNNVMGWYRQAPGKERELVAAISGRGGRTYYADSVKGRFTISRDNAKNTVYLQMNSLKPEDTAVYYCAAGAYWPDEYWGQGTQVSVSS | high polyreactivity
